Measured values reported in PMC3987144 (The Journal of Cell Biology, 2014).
Each block holds one molecule with its values, some of them ahead of it.

B1: His-SNAP25 (natural protein)
chain: MPADPSEEVAPQVPKTELEELQINAQGVADESLESTRRMLALCEESKEAGIRTLVALDDQGEQLDRIEEGMDQINADMREAEKNLSGMEKCCGICVLPCNKSQSFKEDDGTWKGNDDGKVVNNQPQRVMDDRNGMMAQAGYIGRITNDAREDEMEENMGQVNTMIGNLRNMALDMGSELENQNRQIDRINRKGESNEARIAVANQRAHQLLK

How the values were obtained:
[1] = biological target: Syx1A (Syntaxin 1A), endogenous (Drosophila melanogaster (endogenous in adult fly heads)) (UniProt Q24547); assay: co-IP
Sequence of Syx1A (Syntaxin 1A), endogenous (Drosophila melanogaster (endogenous in adult fly heads)) (Q24547 whole entry): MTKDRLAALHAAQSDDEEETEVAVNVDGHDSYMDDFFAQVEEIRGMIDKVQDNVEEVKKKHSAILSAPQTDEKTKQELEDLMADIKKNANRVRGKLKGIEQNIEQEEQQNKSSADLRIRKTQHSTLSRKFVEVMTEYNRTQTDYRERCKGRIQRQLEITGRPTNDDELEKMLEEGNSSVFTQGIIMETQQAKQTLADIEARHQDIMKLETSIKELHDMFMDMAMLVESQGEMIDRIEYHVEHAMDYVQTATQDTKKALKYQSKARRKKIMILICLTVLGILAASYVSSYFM

[2] = biological target: V100 (neuronal v-ATPase V0 subunit a1), endogenous (Drosophila melanogaster (endogenous in adult fly heads)) (UniProt Q8IML5); assay: co-IP
[3] = biological target: GST-Syx1A (Syntaxin 1A, 1-267 aa) (Drosophila melanogaster, UniProt Q24547 1-267); assay: pull-down
[4] = biological target: GST-open Syx1A (Syx1A L168A/E169A mutant, 1-267 aa) (Drosophila melanogaster, UniProt Q24547 1-267, L168A | E169A); assay: pull-down
His-SNAP25 = biological target: B1; assay: pull-down

percent of V100 in a complex with Syx1A [1]: < 50%
Molecule: V100 (neuronal v-ATPase V0 subunit a1), endogenous (from UniProt Q8IML5 1-833) (natural protein)

Molecule: B1
percent of total input in complex with V100 (% of total input) [2]: 1
binding result [3]: binds
binding result [4]: binds

binding result [3]: binds
B2: His-n-Syb (neuronal Synaptobrevin, amino acids 1-104) (domain or fragment)
chain: MADAAPAGDAPPNAGAPAGEGGDGEIVGGPHNPQQIAAQKRLQQTQAQVDEVVDIMRTNVEKVLERDSKLSELDDRADALQQGASQFEQQAGKLKRKFWLQNLK

binding result (His-SNAP25): binds
B3: GST-Syx1A-H3 (Syx1A SNARE domain, 200-267 aa) (domain or fragment)
chain: ARHQDIMKLETSIKELHDMFMDMAMLVESQGEMIDRIEYHVEHAMDYVQTATQDTKKALKYQSKARRK
